# No end group written: not given here.
# B1: ADP101 (protein)
# chain: MWSTRSPNSTAWPLSLEPDPGMASASTTMHTTTIAEPDPGMSGWPDGRMETSTPTIMD
# modifications: also: human Fc-tagged dimer
# B2: ADP390 (protein)
# chain: GTDDATADSRKTYTLTDYLKNTYRLKLYSLRWISDHEYLYKQENNILVFNAEYGNSSVFLENSTFDEFGHSINDYSISPDGQFILLEYNYVKQWRHSYTASYDIYDLNKRQLITEERIPNNTQWVTWSPVGHKLAYVWNNDIYVKIEPNLPSYRITWTGKEDIIYNGITDWVYEEEVFSAYSALWWSPNGTFLAYAQFNDTEVPLIEYSFYSDESLQYPKTVRVPYPKAGAVNPTVKFFVVNTDSLSSVTNATSIQITAPASMLIGDHYLCDVTWATQERISLQWLRRIQNYSVMDICDYDESSGRWNCLVARQHIEMSTTGWVGRFRPSEPHFTLDGNSFYKIISNEEGYRHICYFQIDKKDCTFITKGTWEVIGIEALTSDYLYYISNEYKGMPGGRNLYKIQLSDYTKVTCLSCELNPERCQYYSVSFSKEAKYYQLRCSGPGLPLYTLHSSVNDKGLRVLEDNSALDKMLQNVQMPSKKLDFIILNETKFWYQMILPPHFDKSKKYPLLLDVYAGPCSQKADTVFRLNWATYLASTENIIVASFDGRGSGYQGDKIMHAINRRLGTFEVEDQIEAARQFSKMGFVDNKRIAIWGWSYGGYVTSMVLGSGSGVFKCGIAVAPVSRWEYYDSVYTERYMGLPTPEDNLDHYRNSTVMSRAENFKQVEYLLIHGTADDNVHFQQSAQISKALVDVGVDFQAMWYTDEDHGIASSTAHQHIYTHMSHFIKQCFSLP
# modifications: bait human Fc-tagged dimer
# B3: ADP366 (protein)
# chain: MESKGASSCRLLFCLLISATVFRPGLGWYTVNSAYGDTIIIPCRLDVPQNLMFGKWKYEKPDGSPVFIAFRSSTKKSVQYDDVPEYKDRLNLSENYTLSISNARISDEKRFVCMLVTEDNVFEAPTIVKVFKQPSKPEIVSKALFLETEQLKKLGDCISEDSYPDGNITWYRNGKVLHPLEGAVVIIFKKEMDPVTQLYTMTSTLEYKTTKADIQMPFTCSVTYYGPSGQKTIHSEQAVFDIYYPTEQVTIQVLPPKNAIKEGDNITLKCLGNGNPPPEEFLFYLPGQPEGIRSSNTYTLTDVRRNATGDYKCSLIDKKSMIASTAITVHYLDLSLNPSGEVTRQIGDALPVSCTISASRNATVVWMKDNIRLRSSPSFSSLHYQDAGNYVCETALQEVEGLKKRESLTLIVEGKPQIKMTKKTDPSGLSKTIICHVEGFPKPAIQWTITGSGSVINQTEESPYINGRYYSKIIISPEENVTLTCTAENQLERTVNSLNVSAISIPEHDEADEISDENREKVNDQAK
# modifications: bait human Fc-tagged dimer
# B4: ADP288 (protein)
# chain: MDHSHHMGMSYMDSNSTMQPSHHHPTTSASHSHGGGDSSMMMMPMTFYFGFKNVELLFSGL
# modifications: also: human Fc-tagged dimer
# B5: ADP389 (protein)
# chain: PSSLSQEQSEQDAIYQNLTQLKAAVGELSEKSKLQEIYQELTQLKAAVGELPEKSKLQEIYQELTRLKAAVGELPEKSKLQEIYQELTRLKAAVGELPEKSKLQEIYQELTRLKAAVGELPEKSKLQEIYQELTELKAAVGELPEKSKLQEIYQELTQLKAAVGELPDQSKQQQIYQELTDLKTAFERLCRHCPKDWTFFQGNCYFMSNSQRNWHDSVTACQEVRAQLVVIKTAEEQNFLQLQTSRSNRFSWMGLSDLNQEGTWQWVDGSPLSPSFQRYWNSGEPNNSGNEDCAEFSGSGWNDNRCDVDNYWICKKPAACFRDE
# modifications: bait human Fc-tagged dimer
# B6: ADP365 (protein)
# chain: MALGSPGLLFLLFSSLRADTQEKEVRAMVGSDVELSCACPEGSRFDLNDVYVYWQTSESKTVVTYHIPQNSSLENVDSRYRNRALMSPAGMLRGDFSLRLFNVTPQDEQKFHCLVLSQSLGFQEVLSVEVTLHVAANFSVPVVSAPHSPSQDELTFTCTSINGYPRPNVYWINKTDNSLLDQALQNDTVFLNMRGLYDVVSVLRIARTPSVNIGCCIENVLLQQNLTVGSQTGNDIGERDKITENPVSTG
# modifications: bait human Fc-tagged dimer
# B7: ADP348 (protein)
# chain: MAASAGAGAVIAAPDSRRWLWSVLAAALGLLTAGVSALEVYTPKEIFVANGTQGKLTCKFKSTSTTGGLTSVSWSFQPEGADTTVSFFHYSQGQVYLGNYPPFKDRISWAGDLDKKDASINIENMQFIHNGTYICDVKNPPDIVVQPGHIRLYVVEKENLPVFP
# modifications: bait human Fc-tagged dimer
# B8: ADP301 (protein)
# chain: MAKLIALTLLGMGLALFRNHQSSYQTRLNALREVQPVELPNCNLVKGIETGSEDLEILPNGLAFISSGLKYPGIKSFNPNSPGKILLMDLNEEDPTVLELGITGSKFDVSSFNPHGISTFTDEDNAMYLLVVNHPDAKSTVELFKFQEEEKSLLHLKTIRHKLLPNLNDIVAVGPEHFYGTNDHYFLDPYLQSWEMYLGLAWSYVVYYSPSEVRVVAEGFDFANGINISPDGKYVYIAELLAHKIHVYEKHANWTLTPLKSLDFNTLVDNISVDPETGDLWVGCHPNGMKIFFYDSENPPASEVLRIQNILTEEPKVTQVYAENGTVLQGSTVASVYKGKLLIGTVFHKALYCEL
# modifications: bait human Fc-tagged dimer
# B9: ADP396 (protein)
# chain: PSLIKQQVLKNVRIDPSSLSFNMWKEIPIPFYLSVYFFDVMNPSEILKGEKPQVRERGPYVYREFRHKSNITFNNNDTVSFLEYRTFQFQPSKSHGSESDYIVMPNILVLGAAVMMENKPMTLKLIMTLAFTTLGERAFMNRTVGEIMWGYKDPLVNLINKYFPGMFPFKDKFGLFAELNNSDSGLFTVFTGVQNISRIHLVDKWNGLSKVDFWHSDQCNMINGTSGQMWPPFMTPESSLEFYSPEACRSMKLMYKESGVFEGIPTYRFVAPKTLFANGSIYPPNEGFCPCLESGIQNVSTCRFSAPLFLSHPHFLNADPVLAEAVTGLHPNQEAHSLFLDIHPVTGIPMNCSVKLQLSLYMKSVAGIGQTGKIEPVVLPLLWFAESGAMEGETLHTFYTQLVLMPKVMHY
# modifications: bait human Fc-tagged dimer
# B10: ADP102 (protein)
# chain: MARGAALALLLFGLLGVLVAAPDGGFDLSDALPDNENKKPTAIPKKPSAGDDFDLGDAVVDGENDDPRPPNPPKPMPNPNPNHPSSSGSFSDADLADGVSGGEGKGGSDGGGSHRKEGEEADAP
# modifications: bait human Fc-tagged dimer
# B11: ADP156 (protein)
# chain: MAILSFLPVLATESDWADCKSPQPWGHMLLWTAVLFLAPVAGTPAAPPKAVLKLEPQWINVLQEDSVTLTCRGTHSPESDSIQWFHNGNLIPTHTQPSYRFKANNNDSGEYTCQTGQTSLSDPVHLTVLSEWLVLQTPHLEFQEGETIVLRCHSWKDKPLVKVTFFQNGKSKKFSRSDPNFSIPQANHSHSGDYHCTGNIGYTLYSSKPVTITVQAPSSSPM
# modifications: bait human Fc-tagged dimer
# B12: ADP329 (protein)
# chain: MAPPGSSTVFLLALTIIASTWALTPTHYLTKHDVERLKASLDRPFTNLESAFYSIVGLSSLGAQVPDAKKACTYIRSNLDPSNVDSLFYAAQASQALSGCEISISNETKDLLLAAVSEDSSVTQIYHAVAALSGFGLPLASQEALSALTARLSKEETVLATVQALQTASHLSQQADLRSIVEEIEDLVARLDELGGVYLQFEEGLETTALFVAATYKLMDHVGTEPSIKEDQVIQLMNAIFSKKNFESLSEAFSVASAAAVLSHNRYHVPVVVVPEGSASDTHEQAILRLQVTNVLSQPLTQATVKLEHAKSVASRATVLQKTSFTPVGDVFELNFMNVKFSSGYYDFLVEVEGDNRYIANTVELRVKISTEVGITNVDLSTVDKDQSIAPKTTRVTYPAKAKGTFIADSHQNFALFFQLVDVNTGAELTPHQTFVRLHNQKTGQEVVFVAEPDNKNVYKFELDTSERKIEFDSASGTYTLYLIIGDATLKNPILWNVADVVIKFPEEEAPSTVLSQNLFTPKQEIQHLFREPEKRPPTV
# modifications: bait human Fc-tagged dimer
# B13: ADP150 (protein)
# chain: MALQLWALTLLGLLGAGASLRPRKLDFFRSEKELNHLAVDEASGVVYLGAVNALYQLDAKLQLEQQVATGPALDNKKCTPPIEASQCHEAEMTDNVNQLLLLDPPRKRLVECGSLFKGICALRALSNISLRLFYEDGSGEKSFVASNDEGVATVGLVSSTGPGGDRVLFVGKGNGPHDNGIIVSTRLLDRTDSREAFEAYTDHATYKAGYLSTNTQQFVAAFEDGPYVFFVFNQQDKHPARNRTLLARMCREDPNYYSYLEMDLQCRDPDIHAAAFGTCLAASVAAPGSGRVLYAVFSRDSRSSGGPGAGLCLFPLDKVHAKMEANRNACYTGTREARDIFYKPFHGDIQCGGHAPGSSKSFPCGSEHLPYPLGSRDGLRGTAVLQRGGLNLTAVTVAAENNHTVAFLGTSDGRILKVYLTPDGTSSEYDSILVEINKRVKRDLVLSGDLGSLYAMTQDKVFRLPVQECLSYPTCTQCRDSQDPYCGWCVVEGRCTRKAECPRAEEASHWLWSRSKSCVAVTSAQPQNMSRRAQGEVQLTVSPLPALSEEDELLCLFGESPPHPARVEGEAVICNSPSSIPVTPPGQDHVAVTIQLLLRRGNIFLTSYQYPFYDCRQAMSLEENLPCISCVSNRWTCQWDLRYHECREASPNPEDGIVRAHMEDSCPQFLGPSPLVIPMNHETDVNFQGKNLDTVKGSSLHVGSDLLKFMEPVTMQESGTFAFRTPKLSHDANETLPLHLYVKSYGKNIDSKLHVTLYNCSFGRSDCSLCRAANPDYRCAWCGGQSRCVYEALCNTTSECPPPVITRIQPETGPLGGGIRITILGSNLGVQAGDIQRISVAGRNCSFQPERYSVSTRIVCVIEAAETPFTGGVEVDVFGKLGRSPPNVQFTFQQPKPLSVEPQQGPQAGGTTLTIHGTHLDTGSQEDVRVTLNGVPCKVTKFGAQLQCVTGPQATRGQMLLEVSYGGSPVPNPGIFFTYRENPVLRAFEPLRSFASGGRSINVTGQGFSLIQRFAMVVIAEPLQSWQPPREAESLQPMTVVGTDYVFHNDTKVVFLSPAVPEEPEAYNLTVLIEMDGHRALLRTEAGAFEYVPDPTFENFTGGVKKQVNKLIHARGTNLNKAMTLQEAEAFVGAERCTMKTLTETDLYCEPPEVQPPPKRRQKRDTTHNLPEFIVKFGSREWVLGRVEYDTRVSDVP
# modifications: bait human Fc-tagged dimer
# B14: ADP338 (protein)
# chain: MAPRAARAPATLLLALGAVLWPAAGAWELTILHTNDVHSRLEQTSEDSSKCVNASRCMGGVARLFTKVQQIRRAEPNVLLLDAGDQYQGTIWFTVYKGAEVAHFMNALRYDAMALGNHEFDNGVEGLIEPLLKEAKFPILSANIKAKGPLASQISGLYLPYKVLPVGDEVVGIVGYTSKETPFLSNPGTNLVFEDEITALQPEVDKLKTLNVNKIIALGHSGFEMDKLIAQKVRGVDVVVGGHSNTFLYTGNPPSKEVPAGKYPFIVTSDDGRKVPVVQAYAFGKYLGYLKIEFDERGNVISSHGNPILLNSSIPEDPSIKADINKWRIKLDNYSTQELGKTIVYLDGSSQSCRFRECNMGNLICDAMINNNLRHTDEMFWNHVSMCILNGGGIRSPIDERNNGTITWENLAAVLPFGGTFDLVQLKGSTLKKAFEHSVHRYGQSTGEFLQVGGIHVVYDLSRKPGDRVVKLDVLCTKCRVPSYDPLKMDEVYKVILPNFLANGGDGFQMIKDELLRHDSGDQDINVVSTYISKMKVIYPAVEGRIKFSTGS
# modifications: bait human Fc-tagged dimer
# Biological target: Circumsporozoite protein (CSP) (Plasmodium falciparum (isolate 3D7), UniProt Q7K740)
# Sequence (Q7K740 19-374): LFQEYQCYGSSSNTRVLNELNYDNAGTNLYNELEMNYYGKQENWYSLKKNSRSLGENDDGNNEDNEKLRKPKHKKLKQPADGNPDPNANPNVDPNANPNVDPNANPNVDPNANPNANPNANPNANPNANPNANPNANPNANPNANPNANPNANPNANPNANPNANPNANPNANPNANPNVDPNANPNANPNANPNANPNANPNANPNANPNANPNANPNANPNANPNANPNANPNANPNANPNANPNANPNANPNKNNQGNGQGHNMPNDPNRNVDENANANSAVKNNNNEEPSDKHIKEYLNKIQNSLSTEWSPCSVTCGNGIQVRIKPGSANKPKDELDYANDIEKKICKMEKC
# Assay: AVEXIS screen signal:noise (double-corrected)
row,Binder,binding score
1,B1,1.1
2,B2,0.756
3,B3,3.25
4,B4,0.576
5,B5,0.72
6,B6,2.12
7,B7,0.706
8,B8,1.58
9,B9,2.67
10,B10,0.919
11,B11,1.12
12,B12,0.882
13,B13,0.742
14,B14,1.27
